This data set concerns the molecule itself. The experiment in a line: crystal structure; covalent DNMT3B–DNMT3L–DNA complexes (25-mer Zebularine DNA: CGA, CGT or CAG) with SAH; proteins co-expressed in E. coli and purified as a complex; hanging-drop vapor diffusion, 0.1 M Tris-HCl pH 8.0, MgCl2, PEG, 0.2 mM AdoHcy, 4 °C or 16 °C.

B1: MTase domain of human DNMT3B (residues 562–853) (domain or fragment, UniProt Q9UBC3-1 562-853, looked up)
chain: KLYPAIPAARRRPIRVLSLFDGIATGYLVLKELGIKVGKYVASEVCEESIAVGTVKHEGNIKYVNDVRNITKKNIEEWGPFDLVIGGSPCNDLSNVNPARKGLYEGTGRLFFEFYHLLNYSRPKEGDDRPFFWMFENVVAMKVGDKRDISRFLECNPVMIDAIKVSAAHRARYFWGNLPGMNRPVIASKNDKLELQDCLEYNRIAKLKKVQTITTKSNSIKQGKNQLFPVVMNGKEDVLWCTELERIFGFPVHYTDVSNMGRGARQKLLGRSWSVPVIRHLFAPLKDYFACE
modifications: catalytic cysteine C651 covalently linked to the Zebularine of the DNA
notes: Two copies stand in the DNMT3L–DNMT3B–DNMT3B–DNMT3L heterotetramer; also called hDNMT3B; WT DNMT3B; source: E. coli BL21 DE3 (RIL), co-expressed with DNMT3L, purified (Ni-NTA, Heparin HP, SEC; after DNA cross-linking HiTrap Q XL, SEC); not shown: His6, N-terminal, cleaved; SUMO, N-terminal, cleaved
For B1, the binding result is reported as “binds”.

B2: K777A-mutated MTase domain of human DNMT3B (residues 562–853) (domain or fragment, UniProt Q9UBC3-1 562-853, looked up)
chain: KLYPAIPAARRRPIRVLSLFDGIATGYLVLKELGIKVGKYVASEVCEESIAVGTVKHEGNIKYVNDVRNITKKNIEEWGPFDLVIGGSPCNDLSNVNPARKGLYEGTGRLFFEFYHLLNYSRPKEGDDRPFFWMFENVVAMKVGDKRDISRFLECNPVMIDAIKVSAAHRARYFWGNLPGMNRPVIASKNDKLELQDCLEYNRIAKLKKVQTITTASNSIKQGKNQLFPVVMNGKEDVLWCTELERIFGFPVHYTDVSNMGRGARQKLLGRSWSVPVIRHLFAPLKDYFACE
modifications: catalytic cysteine C651 covalently linked to the Zebularine of the DNA
notes: also called K777A DNMT3B; source: E. coli BL21 DE3 (RIL), co-expressed with DNMT3L, purified (Ni-NTA, Heparin HP, SEC; after DNA cross-linking HiTrap Q XL, SEC); not shown: His6, N-terminal, cleaved; SUMO, N-terminal, cleaved
With B2, the binding result is on record as “binds”.
